In the supplement of paper PMC10567573:

B1: SLC22A15 (parent)
chain: IAQYALLGYFIRSWRTLAILVNLQ
B2: FAM189A2 (parent)
chain: VAAALRYLQIFATRRSCIDESQIS

Variants of: B1
Test: protein stability index of a GFP-peptide fusion (GPS, HEK-293T) (PSI 1-6); higher = more stable
Conditions: c terminus: a fixed tail appended
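Note: lentivirally expressed fusions sorted by FACS into six bins by GFP to DsRed ratio, PSI derived from sequencing read proportions per bin multiplied by bin number.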

First: IAQYALLGYFIRSWRTLAIQVNLQ [L20Q]
Second: IAQYALLGYFIRSWRTLAIIVNLQ [L20I]
The protein stability index of the first is lower: 3.19 for the first, 5.13 for the second.

First: IAQYALLGYFIRSWRTLAIKVNLQ [L20K]
Second: IAQYALLGYFIRSWRTLAIRVNLQ [L20R]
The protein stability index of the first is lower: 2.38 for the first, 3.09 for the second.

Compared with IAQYALLGYFIRSWRTLAIHVNLQ [L20H], IAQYALLGYFIRSWRTLAILVNGQ [L23G] is lower in protein stability index: 3.94 for the first, 3.35 for the second.

Compared with IAQYALLGYFIRSWRTLAILVNVQ [L23V], IAQYALLGYFIRSWRTLAILVNYQ [L23Y] is lower in protein stability index: 4.42 for the first, 3.34 for the second.

First: IAQYALLGYFIRSWRTLAILVNCQ [L23C]
Second: IAQYALLGYFIRSWRTLAILVNFQ [L23F]
The protein stability index of the first is higher: 3.16 for the first, 2.79 for the second.

First: IAQYALLGYFIRSWRTLAILVNHQ [L23H]
Second: IAQYALLGYFIRSWRTLAILVNPQ [L23P]
The protein stability index of the first is higher: 2.81 for the first, 2.52 for the second.

First: IAQYALLGYFIRSWRTLAILVNEQ [L23E]
Second: IAQYALLGYFIRSWRTLAILVNDQ [L23D]
The protein stability index of the first is lower: 2.25 for the first, 3.83 for the second.

First: IAQYALLGYFIRSWRTLAILVNTQ [L23T]
Second: IAQYALLGYFIRSWRTLAILVNQQ [L23Q]
The protein stability index of the first is lower: 3.08 for the first, 3.66 for the second.

Compared with IAQYALLGYFIRSWRTLAILVNRQ [L23R], IAQYALLGYFIRSWRTLAILVNMQ [L23M] is higher in protein stability index: 2.6 for the first, 4.11 for the second.

Compared with IAQYALLGYFIRSWRTLAILVNWQ [L23W], IAQYALLGYFIRSWRTLAILVNKQ [L23K] is higher in protein stability index: 2.35 for the first, 3.75 for the second.

Compared with IAQYALLGYFIRSWRTLAILVNNQ [L23N], IAQYALLGYFIRSWRTLAILVNSQ [L23S] is higher in protein stability index: 3.06 for the first, 3.76 for the second.

Going from IAQYALLGYFIRSWRTLAILVNAQ [L23A] to IAQYALLGYFIRSWRTLAILVNIQ [L23I], the protein stability index falls from 2.65 to 2.5.

Variants of: B2
Test: as above
Conditions: c terminus: a fixed tail appended

Compared with VAARLRYLQIFATRRSCIDESQIS [A4R], VAACLRYLQIFATRRSCIDESQIS [A4C] is higher in protein stability index: 2.09 for the first, 2.83 for the second.

First: VAAQLRYLQIFATRRSCIDESQIS [A4Q]
Second: VAANLRYLQIFATRRSCIDESQIS [A4N]
The protein stability index of the first is lower: 2.73 for the first, 2.83 for the second.

Going from VAAELRYLQIFATRRSCIDESQIS [A4E] to VAAGLRYLQIFATRRSCIDESQIS [A4G], the protein stability index rises from 1.25 to 2.23.

First: VAADLRYLQIFATRRSCIDESQIS [A4D]
Second: VAASLRYLQIFATRRSCIDESQIS [A4S]
The protein stability index of the first is higher: 2.19 for the first, 1.88 for the second.

Compared with VAAMLRYLQIFATRRSCIDESQIS [A4M], VAALLRYLQIFATRRSCIDESQIS [A4L] is higher in protein stability index: 3.33 for the first, 3.72 for the second.

First: VAAPLRYLQIFATRRSCIDESQIS [A4P]
Second: VAAHLRYLQIFATRRSCIDESQIS [A4H]
The protein stability index of the first is higher: 3.34 for the first, 1.89 for the second.

Compared with VAAFLRYLQIFATRRSCIDESQIS [A4F], VAAILRYLQIFATRRSCIDESQIS [A4I] is higher in protein stability index: 1.65 for the first, 2.64 for the second.

Going from VAAWLRYLQIFATRRSCIDESQIS [A4W] to VAAYLRYLQIFATRRSCIDESQIS [A4Y], the protein stability index falls from 2.27 to 2.02.

Going from VAATLRYLQIFATRRSCIDESQIS [A4T] to VASALRYLQIFATRRSCIDESQIS [A3S], the protein stability index rises from 1.88 to 1.97.

Compared with VAIALRYLQIFATRRSCIDESQIS [A3I], VAEALRYLQIFATRRSCIDESQIS [A3E] is lower in protein stability index: 4.72 for the first, 2.34 for the second.

First: VAQALRYLQIFATRRSCIDESQIS [A3Q]
Second: VAFALRYLQIFATRRSCIDESQIS [A3F]
The protein stability index of the first is lower: 1.8 for the first, 1.83 for the second.

First: VAHALRYLQIFATRRSCIDESQIS [A3H]
Second: VAWALRYLQIFATRRSCIDESQIS [A3W]
The protein stability index of the first is lower: 2.27 for the first, 3.75 for the second.

Going from VACALRYLQIFATRRSCIDESQIS [A3C] to VAPALRYLQIFATRRSCIDESQIS [A3P], the protein stability index falls from 2.42 to 1.52.

Going from VARALRYLQIFATRRSCIDESQIS [A3R] to VAYALRYLQIFATRRSCIDESQIS [A3Y], the protein stability index rises from 1.71 to 3.

Going from VAGALRYLQIFATRRSCIDESQIS [A3G] to VAVALRYLQIFATRRSCIDESQIS [A3V], the protein stability index rises from 2.61 to 3.92.

Going from VANALRYLQIFATRRSCIDESQIS [A3N] to VATALRYLQIFATRRSCIDESQIS [A3T], the protein stability index rises from 2.98 to 4.19.

First: VYAALRYLQIFATRRSCIDESQIS [A2Y]
Second: VMAALRYLQIFATRRSCIDESQIS [A2M]
The protein stability index of the first is higher: 2.15 for the first, 1.99 for the second.

Compared with VLAALRYLQIFATRRSCIDESQIS [A2L], VEAALRYLQIFATRRSCIDESQIS [A2E] is lower in protein stability index: 2.9 for the first, 1.89 for the second.

First: VQAALRYLQIFATRRSCIDESQIS [A2Q]
Second: VWAALRYLQIFATRRSCIDESQIS [A2W]
The protein stability index of the first is lower: 2.29 for the first, 3.06 for the second.

Compared with VPAALRYLQIFATRRSCIDESQIS [A2P], VFAALRYLQIFATRRSCIDESQIS [A2F] is lower in protein stability index: 2.46 for the first, 1.74 for the second.

Going from VRAALRYLQIFATRRSCIDESQIS [A2R] to VKAALRYLQIFATRRSCIDESQIS [A2K], the protein stability index rises from 2 to 3.28.

Going from VCAALRYLQIFATRRSCIDESQIS [A2C] to VIAALRYLQIFATRRSCIDESQIS [A2I], the protein stability index rises from 2.64 to 4.56.

Compared with VNAALRYLQIFATRRSCIDESQIS [A2N], VDAALRYLQIFATRRSCIDESQIS [A2D] is higher in protein stability index: 1.27 for the first, 2.63 for the second.

Compared with VGAALRYLQIFATRRSCIDESQIS [A2G], VAAACRYLQIFATRRSCIDESQIS [L5C] is lower in protein stability index: 2.53 for the first, 1.18 for the second.

First: VAAAERYLQIFATRRSCIDESQIS [L5E]
Second: VAAAARYLQIFATRRSCIDESQIS [L5A]
The protein stability index of the first is lower: 1.87 for the first, 3.88 for the second.

Going from VAAAHRYLQIFATRRSCIDESQIS [L5H] to VAAAFRYLQIFATRRSCIDESQIS [L5F], the protein stability index falls from 3.09 to 2.43.

Compared with VAAADRYLQIFATRRSCIDESQIS [L5D], VAAAGRYLQIFATRRSCIDESQIS [L5G] is higher in protein stability index: 2.36 for the first, 2.91 for the second.

First: CAAALRYLQIFATRRSCIDESQIS [V1C]
Second: AAAALRYLQIFATRRSCIDESQIS [V1A]
The protein stability index of the first is lower: 1.68 for the first, 3.21 for the second.

First: HAAALRYLQIFATRRSCIDESQIS [V1H]
Second: NAAALRYLQIFATRRSCIDESQIS [V1N]
The protein stability index of the first is higher: 2.36 for the first, 1.89 for the second.

Going from TAAALRYLQIFATRRSCIDESQIS [V1T] to MAAALRYLQIFATRRSCIDESQIS [V1M], the protein stability index falls from 3.71 to 1.95.

First: SAAALRYLQIFATRRSCIDESQIS [V1S]
Second: WAAALRYLQIFATRRSCIDESQIS [V1W]
The protein stability index of the first is lower: 1.38 for the first, 1.79 for the second.

Compared with KAAALRYLQIFATRRSCIDESQIS [V1K], EAAALRYLQIFATRRSCIDESQIS [V1E] is lower in protein stability index: 1.65 for the first, 1.58 for the second.

Compared with RAAALRYLQIFATRRSCIDESQIS [V1R], DAAALRYLQIFATRRSCIDESQIS [V1D] is lower in protein stability index: 2.21 for the first, 1.82 for the second.

Compared with QAAALRYLQIFATRRSCIDESQIS [V1Q], PAAALRYLQIFATRRSCIDESQIS [V1P] is lower in protein stability index: 2.38 for the first, 1.56 for the second.

Compared with YAAALRYLQIFATRRSCIDESQIS [V1Y], GAAALRYLQIFATRRSCIDESQIS [V1G] is higher in protein stability index: 1.07 for the first, 1.67 for the second.
